What all share (assay): GST pull-down, LC-MS/MS; score of protein identification
One test addresses ATP synthase, O subunit.
For another test, the target named is ATP synthase, β chain.
Test [1] addresses Electron transfer flavoprotein, α subunit.

Chain of Electron transfer flavoprotein, α subunit (Q99LC5 20-333): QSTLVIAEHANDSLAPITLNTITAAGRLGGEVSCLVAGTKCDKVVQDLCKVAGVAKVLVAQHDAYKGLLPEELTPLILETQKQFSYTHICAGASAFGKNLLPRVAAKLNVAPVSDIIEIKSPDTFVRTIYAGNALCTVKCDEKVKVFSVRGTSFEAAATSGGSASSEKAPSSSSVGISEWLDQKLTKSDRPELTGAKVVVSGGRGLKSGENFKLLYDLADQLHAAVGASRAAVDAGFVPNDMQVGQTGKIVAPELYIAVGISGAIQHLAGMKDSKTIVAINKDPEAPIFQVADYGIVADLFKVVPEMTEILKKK
Chain of ATP synthase, O subunit (Q9DB20 24-213): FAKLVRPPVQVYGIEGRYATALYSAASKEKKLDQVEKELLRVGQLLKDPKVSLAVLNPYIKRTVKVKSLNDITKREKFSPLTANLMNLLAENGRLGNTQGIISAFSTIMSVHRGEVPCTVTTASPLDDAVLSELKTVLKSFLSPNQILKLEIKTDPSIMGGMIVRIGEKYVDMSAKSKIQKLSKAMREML
Chain of ATP synthase, β chain (P56480 47-529): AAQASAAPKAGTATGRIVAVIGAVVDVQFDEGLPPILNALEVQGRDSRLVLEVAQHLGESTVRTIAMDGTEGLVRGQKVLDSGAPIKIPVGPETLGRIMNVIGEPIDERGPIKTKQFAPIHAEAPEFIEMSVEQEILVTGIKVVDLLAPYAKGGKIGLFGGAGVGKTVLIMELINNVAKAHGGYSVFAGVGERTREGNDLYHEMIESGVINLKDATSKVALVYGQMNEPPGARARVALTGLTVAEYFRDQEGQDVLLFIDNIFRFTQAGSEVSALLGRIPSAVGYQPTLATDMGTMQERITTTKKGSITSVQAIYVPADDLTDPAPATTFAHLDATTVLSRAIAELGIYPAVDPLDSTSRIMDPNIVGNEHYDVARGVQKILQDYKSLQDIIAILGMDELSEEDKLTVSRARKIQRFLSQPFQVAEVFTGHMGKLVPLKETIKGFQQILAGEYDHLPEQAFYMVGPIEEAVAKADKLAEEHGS

Turning to “GST-LRRC8A (fusion protein comprised of the leucine rich C-terminus of LRRC8A and GST)”, the Unused Score in the test with ATP synthase, O subunit is 8.44; with ATP synthase, β chain it was 5.94; in test [1] it was 11.6.

Values taken from US20210324057A1.
